# According to the supplement of paper PMC10126150:
# ± gives the standard deviation of the averaged measurements.
# Tested on: ATP
# Assay: switch fluorescence ratio, 500 uM ATP over buffer (Cy3 cluster intensity, sum of 5 cycles each) (fold (ratio)); higher = stronger signal-on switching upon ATP binding; sequences stand for … in TCGTCGGCAGCGTCAGATGTGTATAAGAGACAGTTTTTTTTTTTTTTTTTTTTTTTTT…TC
# Conditions: aptamer strand: ATP DNA aptamer (quencher-CACCTGGGGGAGTATTGCGGAGGAAGG + anchor), 100 nM annealed; ATP concentration: 500 uM
# Summary of the method: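 Values give the fluorescence ratio for each switch-domain sequence, averaged from per-cluster ratios of summed target-cycle to summed buffer-cycle Cy3 intensity. The Cy3-labelled switching-strand clusters sat on a modified Illumina MiSeq flow-cell, were annealed to 100 nM quencher-labelled ATP aptamer, and were imaged in selection buffer, then after 15 min with 500 uM ATP at 22 °C. Five cycles ran with NaOH stripping and re-annealing between them, and clusters outside 100-1000 RFU were excluded.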
# 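Note: ATP exposure 15 min at 22 °C before imaging.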
row,Sequence,switch fluorescence ratio
1,CTAGGGCGGA,1.01 ± 0.021
2,CGGGGCTGGA,0.984 ± 0.017
3,AAAGGGCGGA,0.9884 ± 0.009
4,GAGAGGATGG,0.984 ± 0.042
5,CAAATGGTTA,0.974 ± 0.01
6,GGCGTTTGTC,1.03 ± 0.032
7,ATTTTATGGG,0.999 ± 0.019
8,GAAGCCCAGG,3.38 ± 2.6
9,GGGTGCTGCC,1 ± 0.037
10,TTGACGAGTA,1.1 ± 0.13
11,TTATTAATCT,0.9974 ± 0.0049
12,ACGTGCCGGT,0.99 ± 0.05
13,CAGGGTTCGT,0.9894 ± 0.0081
14,TAATATGGTG,0.998 ± 0.014
15,GGGGGCGTTT,1.01 ± 0.045
16,TTAGAGCTGG,1.01 ± 0.027
17,CATTTGGCGG,1 ± 0.013
18,ACAAGGAGGC,0.983 ± 0.014
19,TCGTTTGGGG,1.05 ± 0.061
20,TTATTATGCC,1.02 ± 0.061
21,GTGAGAGGGT,0.998 ± 0.029
22,ACTTTGTATG,1 ± 0.017
23,GTTGGGTTTT,1.02 ± 0.06
24,TCTTCACTAA,1 ± 0.052
25,CAGGTTTCGG,0.987 ± 0.022
26,TTGGTCCGTT,1.02 ± 0.045

row,Sequence,switch fluorescence ratio
1,AGATGTGCCT,1.01 ± 0.045
2,GAAATTTGGT,0.99 ± 0.042
3,TGCTTTAGGG,0.965 ± 0.029
4,GAATGGATGT,1 ± 0.012
5,AAGATTCATT,0.99763 ± 0.00055
6,GGTACAGTTT,0.975 ± 0.019
7,TTATTTTTCT,1.01 ± 0.032
8,TTTGGGCCGC,1.06 ± 0.05
9,GGGGATAGTG,0.997 ± 0.011
10,GATGCCGGCA,0.98 ± 0.065
11,TGTGGGTGTT,0.961 ± 0.011
12,GTCCGGGGCT,1.04 ± 0.036
13,GGTTCAGCGC,1.03 ± 0.041
14,GATACGTGGG,0.9702 ± 0.0065
15,GGGATTGAGG,1.01 ± 0.032
16,GTCTTATATT,1.01 ± 0.06
17,CAGGGATGTG,1.03 ± 0.013
18,CTGGTCGGGT,1 ± 0.006
19,AATTGGGGTT,1.012 ± 0.0052
20,TTGGACTGGT,1.04 ± 0.039
21,CAATTTGCTG,0.94 ± 0.026
22,GGCTGTAAGT,0.9844 ± 0.0066
23,TTTATGGTTT,1 ± 0.031
24,CGTGGATTTT,0.972 ± 0.034
25,ATCTTGATTG,1.03 ± 0.016
26,GGACTTAATG,1.02 ± 0.016

row,Sequence,switch fluorescence ratio
1,TCACTGAGCT,1.05 ± 0.034
2,TTTTGGTCAA,1.02 ± 0.037
3,GGAAATGGGT,1.05 ± 0.036
4,TGGGTTCACT,1.02 ± 0.017
5,ACATAAGAGG,1.05 ± 0.013
6,GAGGGGTTGT,1.03 ± 0.013
7,TATTGGAGAT,1 ± 0.021
8,TTTTCTTGGT,1.01 ± 0.012
9,AAGTGAAAGC,1.01 ± 0.068
10,TTTTTGGCCC,0.9649 ± 0.0018
11,GAGTATTCGG,0.998 ± 0.031
12,TAGGATGGTT,0.984 ± 0.013
13,AAGTGTTTTA,1.001 ± 0.0045
14,GGATCCGAGC,1.03 ± 0.033
15,AGGGGGGAAG,0.989 ± 0.023
16,TTGATCCGCT,1.74 ± 0.47
17,ATTTGACTTC,1.12 ± 0.19
18,CGCCTAGAGG,1.02 ± 0.032
19,TAATTATTAA,1.01 ± 0.019
20,TGGCGGTAGT,1.06 ± 0.056
21,GCTAATATGG,0.998 ± 0.044
22,CATGCCAGAA,0.981 ± 0.015
23,TTTTCGTGGG,0.986 ± 0.027
24,GAACGGCTG,1.07 ± 0.049
